{"source": "paper PMC10269845", "biological_target": "plasminogen (UniProt P00747)", "sequence (P00747 20-810)": "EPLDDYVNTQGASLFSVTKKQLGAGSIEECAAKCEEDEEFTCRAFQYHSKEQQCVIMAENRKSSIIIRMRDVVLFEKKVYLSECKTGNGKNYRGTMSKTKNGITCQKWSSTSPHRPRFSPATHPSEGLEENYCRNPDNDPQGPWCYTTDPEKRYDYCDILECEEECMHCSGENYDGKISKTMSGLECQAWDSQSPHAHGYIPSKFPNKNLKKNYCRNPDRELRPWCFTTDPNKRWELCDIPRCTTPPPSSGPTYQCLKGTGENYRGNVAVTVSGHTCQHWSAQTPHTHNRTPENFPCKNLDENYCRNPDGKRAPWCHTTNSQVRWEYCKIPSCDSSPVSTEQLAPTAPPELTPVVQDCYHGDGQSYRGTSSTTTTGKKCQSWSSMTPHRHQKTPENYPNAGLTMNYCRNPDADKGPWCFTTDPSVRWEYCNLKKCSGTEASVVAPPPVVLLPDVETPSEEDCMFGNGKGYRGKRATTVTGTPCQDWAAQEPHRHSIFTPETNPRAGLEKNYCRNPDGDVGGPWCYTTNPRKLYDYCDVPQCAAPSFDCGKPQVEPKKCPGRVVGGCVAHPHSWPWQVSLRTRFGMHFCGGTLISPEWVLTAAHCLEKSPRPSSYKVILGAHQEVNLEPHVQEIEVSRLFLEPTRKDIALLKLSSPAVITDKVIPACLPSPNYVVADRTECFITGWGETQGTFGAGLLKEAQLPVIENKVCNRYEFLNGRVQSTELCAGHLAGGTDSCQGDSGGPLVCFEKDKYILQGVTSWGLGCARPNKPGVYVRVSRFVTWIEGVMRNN", "experiment": "SPR", "data": [{"substance": "rGAPDH C-terminal mutant (K336A) (from UniProt E4QS33 1-336) (enzyme)", "values": [{"measurement": "Kd", "value": 600, "unit": "nM"}]}]}
